From publication PMC3190738

Target: His-tagged-YFP-PKI-NES
Assay: fluorescence polarisation

Substance | Kd [nM]
wild type mouse CRM1 (1–1071) (from UniProt Q6P5F9 1-1071) (natural protein) | 15600
CRM1-1–1062 (from UniProt Q6P5F9 1-1062) (domain or fragment) | 1700
CRM1 1–1062 + VLV > AAA (from UniProt Q6P5F9 1-1062) (domain or fragment) | 25
CRM1 HEAT 9 loop variant (VLV > AAA) (from UniProt Q6P5F9 1-1071) (natural protein) | 200
